Laboratory results from the supplement of paper PMC7877785.
± gives the uncertainty stated by the source.

Experiment: self-splicing fitness, log relative to wild type (ln ratio); higher = more splicing; Tetrahymena group I intron in knt gene, E. coli kanamycin selection, DiMSum; sequences stand for … in CUCUCU…GGAGGGAAAAGUUAUCAGGCAUGCACCUGGUAGCUAGUCUUUAAACCAAUAGAUUGCAUCGGUUUAAAAGGCAAGACCGUCAAAUUGCGGGAAAGGGGUCAACAGCCGUUCAGUACCAAGUCUCAGGGGAAACUUUGAGAUGGCCUUGCAAAGGGUAUGGUAAUAAGCUGACGGACAUGGUCCUAACCACGCAGCCAAGUCCUAAGUCAACAGAUCUUCUGUUGAUAUGGAUGCAGUUCACAGACUAAAUGUCGGUCGGGGAAGAUGUAUUCUUCUCAUAAGAUAUAGUCGGACCUCUCCUUAAUGGGAGCUAGCGGAUGAAGUGAUGCAACACUGGAGCCGCUGGGAACUAAUUUGUAUGCGAAAGUAUAUUGAUUAGUUUUGGAGUACUCGUGGUCG
Summary of the method: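 Fitness was computed with DiMSum as the error-weighted combination of replicate fold changes, kanamycin versus none, each normalised to wild type. The library randomised all eight intron nucleotides of the P1ex region, with the intron placed in the knt kanamycin-resistance gene on pET-22b(+) in E. coli BL21(DE3). Six replicate transformations were grown overnight at 37°C or 30°C on LB agar with or without 25 μg/mL kanamycin, plus 100 μg/mL carbenicillin, 50 μM IPTG and 0.2% rhamnose. Pooled colonies were amplicon-sequenced on an Illumina HiSeq 2500.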

Row | Sequence | self-splicing fitness (ln) (30 °C) | self-splicing fitness (ln) (37 °C)
1 | GGAGAGCAAUAUUACGUUGG | -4.09 ± 0.47 | -2.64 ± 0.36
2 | GGAUAGCAAUAUUACGAAGA | -2.93 ± 0.34 | -1.82 ± 0.31
3 | GGAUAGCAAUAUUACGAAGG | -2.12 ± 0.24 | -2.02 ± 0.26
4 | GGAUAGCAAUAUUACGACAC | -0.106 ± 0.11 | 0.407 ± 0.14
5 | GGAUAGCAAUAUUACGAGCU | -0.723 ± 0.19 | -0.744 ± 0.14
6 | GGAUAGCAAUAUUACGAUCA | 0.409 ± 0.12 | 0.227 ± 0.12
7 | GGAUAGCAAUAUUACGCAGA | -2.53 ± 0.25 | -1.58 ± 0.21
8 | GGAUAGCAAUAUUACGCCCG | -1.49 ± 0.24 | -0.949 ± 0.27
9 | GGAUAGCAAUAUUACGCCUU | -0.526 ± 0.11 | 0.31 ± 0.1
10 | GGAUAGCAAUAUUACGCGAA | -1.69 ± 0.29 | -1.41 ± 0.42
11 | GGAUAGCAAUAUUACGCGAC | -3.69 ± 0.36 | -1.92 ± 0.38
12 | GGAUAGCAAUAUUACGCUAU |  | -2.05 ± 0.31
13 | GGAUAGCAAUAUUACGCUGU | -1.65 ± 0.25 | -2.68 ± 0.38
14 | GGAUAGCAAUAUUACGGAUC | -0.869 ± 0.084 | -0.269 ± 0.11
15 | GGAUAGCAAUAUUACGGCGC | 0.356 ± 0.34 | 0.121 ± 0.33
16 | GGAUAGCAAUAUUACGGCUC | -0.0157 ± 0.31 | -1.59 ± 0.35
17 | GGAUAGCAAUAUUACGGCUU | -0.686 ± 0.095 | -0.309 ± 0.11
18 | GGAUAGCAAUAUUACGGGCG | -1.69 ± 0.13 | -0.955 ± 0.094
19 | GGAUAGCAAUAUUACGGUCG | -0.0227 ± 0.077 | 0.199 ± 0.094
20 | GGAUAGCAAUAUUACGGUUU | -1.22 ± 0.093 | -0.329 ± 0.11

Row | Sequence | self-splicing fitness (ln) (30 °C) | self-splicing fitness (ln) (37 °C)
21 | GGAUAGCAAUAUUACGUACC | -2.37 ± 0.26 | -0.601 ± 0.25
22 | GGAUAGCAAUAUUACGUAGG | -2.82 ± 0.19 | -1.52 ± 0.18
23 | GGAUAGCAAUAUUACGUAGU | -3.21 ± 0.15 | -1.67 ± 0.15
24 | GGAUAGCAAUAUUACGUCCG | -0.616 ± 0.17 | -0.972 ± 0.2
25 | GGAUAGCAAUAUUACGUCCU | -3.13 ± 0.19 | -1.84 ± 0.24
26 | GGAUAGCAAUAUUACGUCGC | -1.97 ± 0.17 | -1.42 ± 0.21
27 | GGAUAGCAAUAUUACGUCGU | -0.886 ± 0.1 | -0.841 ± 0.12
28 | GGAUAGCAAUAUUACGUCUC | -2.52 ± 0.25 | -2.16 ± 0.46
29 | GGAUAGCAAUAUUACGUCUG | -0.225 ± 0.061 | -0.0327 ± 0.088
30 | GGAUAGCAAUAUUACGUGGC | -2.56 ± 0.25 | 
31 | GGAUAGCAAUAUUACGUUAG |  | -2 ± 0.23
32 | GGAUAGCAAUAUUACGUUUC |  | -1.84 ± 0.41
33 | GGCAAGCAAUAUUACGAAUU | -0.859 ± 0.074 | 0.0425 ± 0.081
34 | GGCAAGCAAUAUUACGACUG | -1.02 ± 0.12 | -0.532 ± 0.17
35 | GGCAAGCAAUAUUACGAGAC | -0.681 ± 0.14 | -1.2 ± 0.23
36 | GGCAAGCAAUAUUACGAGGA | -3.3 ± 0.42 | -1.77 ± 0.24
37 | GGCAAGCAAUAUUACGAUGA | -1.07 ± 0.11 | -0.765 ± 0.13
38 | GGCAAGCAAUAUUACGAUGU | -2.19 ± 0.12 | -1.44 ± 0.13
39 | GGCAAGCAAUAUUACGCACG | -1 ± 0.13 | 0.171 ± 0.24
